Reference: patent publication US20180244757A1

B1: MAb 2AG9 (antibody, V domains shown)
VH: ELARPGASVKLSCKASGYTFTNYYMQWIKQRPGQGLEWIGAVYPGDGDTRYTQKFKGKASLTADKSSTTAYMQLSSLASEDSAVYYCTRGDYEGTWFTYWGQGTLVTVSA
VL: DIVMTQTTAIMSASPGEKVTMTCSASSSVSYMHWYQQKSGTSPKRWMYDTSKLASGVPGRFSGSGSGTTYSLTISTMEAEDAATYYCQQWSSNPPTFGGGTKLEIK
B2: MAb 2BB8 (antibody, V domains shown)
VH: QAYLQQSGAELVRSGASLKMSCKASGYTFTSYNLHWVKQTPGQGLEWIGYIFPGNGGTAYNEKFKGKATLTADTSSSTAYMQISSLTSEDSAVYFCARGGPYYALDYWGQGTSVTVSS
VL: DIQMTQSPASLSASVGETVTITCRTSGNIHTYLAWYQHKQGKSPQLLVYYAKTLADGVPSRFSGSGSGTQYSLKINSLQPEDFGSYYCQHFWSNPRTFGGGTKLEIK
B3: MAb 2BB6 (antibody, V domains shown)
VH: EVQLEESGPDLVKPSQSLSLTCTVTGFSITSGYSWHWIRQFPGNKLEWMGYIHFSGSTNYNPSLKSRISITRDTSKNQFFLQLSSVTTDDTGTYYCARDLTGIDSWGQGTTLTVSS
VL: DIVMTQTPAIMSASPGEKVTISCSASSSVSYMYWFQQKPGSSPKPWIYRTSNLASGVPARFSGSGSGTSYSVTISSMEAEDAATYYCQQYHSYPLTFGAGTKLELK
B4: MAb 2BA2 (antibody, V domains shown)
VH: VQLQESGPGLVKPSQPLSLTCSVTGYSITSAYYWNWIRQFPGNKLEWMGYITYDGTNNYNPSLKNRISITRDTSKNQFFLKLNSVTTEDTASYYCARDVATVGAMDYWGQGTSVTVSS
VL: SIVMTQTPKFLLVSAGDRVTITCKASQSVSNDVAWYQQKPGQSPKLLIYFASNRYTGVPDRFTGSGYGTDFTFTISTVLAEDLALYFCQQDYSSPRTFGGGTKLEVK
B5: MAb 2BB7 (antibody, V domains shown)
VH: EVQLQQSGPDLVKPGASMKISCKASGYSFTAYTMNWVKQSHGKNLEWIGLISPYNGGTSYNQKFKGKATLTVDKSSSTAYMELLSLTSEDSAVYYCARQIGPYFDHWGQGTTLTVSS
VL: IVMTQTTPSSMYASLGERVTITCKASQDIKSSFSWFQQKPGKSPKTLIYRASRLVDGVPSRFSGSGSGQDSSLTISSLEYEDMGIYYCLQCDEFPYTFGGGTKLEIK
B6: MAb 2BB5 (antibody, V domains shown)
VH: EVQLEESGGGLVQPGGSMKLSCVASGFTFSNYWMNWVRQSPEKGLEWVAEVRLNSNNYATHYAESVKGRFTISRDDSKSSVYLQMSNLRSEDTGIYYCSTDYYGYAMDYWGQGTSVTVSS
VL: DIVMTQTPSIMSASPGEKVTITCSASSNVNYMHWFQQKPGTSPKLWIYSTSNLASGVPARFSGSGSGTSYSLTISRMEAEDAATYYCQQRSNYPPTFGAGTKLELK
B7: MAb 2AF11 (antibody, V domains shown)
VH: QVTLKESGPGILQPSQTLSLTCSFSGFSLSTSGMSVGWIRQPSGKGLEWLAHIWWNDDMYYNPALESRLTISKDTSNNQVFLKIASVVTADTATYYCARIALTGPYWYFDVWGAGTTVTVSS
VL: DIVMTQTPASLSASVGETVTITCRASENIYSYLAWYQQKQGKSPQLLVNNAKTLAEGVPSRFSGSGSGTQFSLKINSLQPEDCGNYYCQHHYGTPLTFGAGTKLELK
B8: MAb 2AG8 (antibody, V domains shown)
VH: VKLEESGAELVRSGASLKMSCKASGYTFTSYNLHWVKQTPGQGLEWIGYIFPGNGGTAYNEKFKGKATLTADTSSSTAYMQISSLTSEDSAVYFCARGGPYYALDYWGQGTSVTVSS
VL: DIVMTQSPASLSASVGETVTITCRTSGNIHTYLAWYQHKQGKSPQLLVYYAKTLADGVPSRFSGSGSGTQYSLKINSLQPEDFGSYYCQHFWSNPRTFGGGTKLEIKR

How the values were obtained:
[1] = target: Heartland virus (HRTV) nucleocapsid (N) protein (Heartland virus (HRTV)); assay: ELISA, purified HRTV coated on the plate, MAb titrated
[2] = target: Heartland virus (HRTV) nucleocapsid (N) protein (Heartland virus (HRTV))
[3] = target: SFTSV antigen (SFTSV-infected Vero cells); assay: IFA on acetone-fixed SFTSV-infected Vero cells, MAb in doubling dilutions

| Binder | ELISA endpoint titer [1] | ELISA endpoint [2] | IFA endpoint titer [3] |
| --- | --- | --- | --- |
| B1 | 1.53 ng/mL | 1.53 ng/mL |  |
| B2 | 0.61 ng/mL | 0.61 ng/mL |  |
| B3 |  | 10000 ng/mL |  |
| B4 | 39.1 ng/mL | 39.1 ng/mL |  |
| B5 | 24.4 ng/mL | 24.4 ng/mL |  |
| B6 | 0.156 ng/mL | 0.156 ng/mL |  |
| B7 |  | 10000 ng/mL | 1 µg/mL |
| B8 | 0.381 ng/mL | 0.381 ng/mL |  |
